Test results as given in US10975142B2, “Endotrophin neutralization and use thereof” (THE BOARD OF REGENTS OF THE UNIVERSITY OF TEXAS SYSTEM, priority 2013, dated 2021).

How the values were obtained:
[1] = test system: tumors from PyMT mice; experiment: allografts of PyMT tumor pieces, cisplatin with TZD or 10B6; type: in vivo; details: cisplatin 1 mg/kg every 5 days combined with TZD 20 mg/kg or 10B6 100 μg/mouse once a week; 2-months post implantation
Procedure: FIGS. 22A-22E. Neutralizing endotrophin activities with monoclonal antibodies sensitizes tumors to cisplatin treatment. FIG. 22A. Pieces of tumors from PyMT mice were implanted into wild-type hosts. Tumor-bearing mice were given cisplatin (1 mg/kg, ip., every 5 days) or PBS, combined with either TZD (20 mg/kg) or anti-endotrophin monoclonal antibodies (100 μg/mouse, once a week) for tumor progression. Tumor volumes were determined by caliper measurements. Data represent mean±SD (n=5/group). *p<0.05, **p<0.01, ***p<0.001 vs. Cisplatin by 2-way ANOVA. FIGS. 22B-22D. 4T1 (0.5×10^6/mouse) cells were xenografted in nude mice and monitored tumor growth (FIG. 22B) and metastasis (FIG. 22C). […] Tumor volumes were determined by caliper measurements. […] Metastatic burden was determined by measuring metastatic lesion area in lung tissues with H&E stains. Quantified data represent mean±SD (n=5/group). **p=0.0007 and *p=0.0209 vs. CIS/10B6 by unpaired student t-test. mRNA levels for EMT markers such as vimentin, snail, slug, twist1, twist2 and S100S4 were determined by RT-qPCR (FIG. 22D). […]
As a last step, therapeutic potential of a previously described endotrophin neutralizing antibody (clone 10B6) on cisplatin sensitivity was determined. […] Tumor regression was monitored for 2-months post implantation. […]

[2] = test system: diet induced obese (DIO) mice; experiment: diet induced obese mice, serum and hepatic lipid parameters; type: in vivo, mouse
Procedure: FIGS. 26A-26G: Endotrophin neutralization improves the metabolic phenotype. FIG. 26A. Two cohorts of mice (n=8) were exposed to high fat diet for 45 days after weaning. At the indicated time points (arrowheads), mice were treated with anti-endotrophin monoclonal antibodies (100 µg/mouse) or equivalent amounts of non-immune antibody. Body weights were monitored. FIG. 26B. Plasma Triglycerides and FIG. 26C. plasma free fatty acids (NEFAs) and FIG. 26D. plasma cholesterol were measured. FIG. 26E. Hepatic triglycerides and FIG. 26F. hepatic cholesterol were measured. Significant differences as indicated by unpaired student t-test. FIG. 26G. […] Scale bar=25 μm.
To evaluate the therapeutic potential of endotrophin neutralizing monoclonal antibodies on lipid parameters, a separate cohort of diet induced obese (DIO) mice were chronically treated with either IgG control or 10B6 (rat anti-mouse endotrophin monoclonal antibody) via intraperitoneal injection at 2 weeks after high-fat diet (HFD) challenge and maintained them on a HFD with antibody treatment for another 4 weeks, similar to the experiment described in FIG. 24.

B1: 10B6: rat anti-mouse endotrophin monoclonal antibody; light chain variable SEQ ID NO: 2, heavy chain variable SEQ ID NO: 4 (antibody, V domains shown)
VH: QVQLQQSGPELAKPGSSVKISCKASGYTFTSYEMHWIKQRPGQGLEWIGYIYPESGSTGYNEKFKGKATLTVDKSSPTAYMQLSSLTPDNSAVYFCTRGLRVLGYVMDVWGHGTSVTVSS
VL: DVQLTQSPSFLSASVGDRVTINCKASQNINKYLNWYQQKLGEAPKRLIYNTNNLQTGIPSRFSGSASGTDYTLTISSLHPEDFATYFCLQHSSLYTFGAGTKLELK
In the case of B1, the “tumor growth / sensitization of the tumors to cisplatin treatment” value [1] is reported as “efficiently sensitize”, the hepatic cholesterol levels ([2]; 10B6 vs IgG) is reported as “comparable” and the “levels of hepatic triglycerides” value ([2]; 10B6 vs IgG) is reported as “improved”. For the same molecule, the “levels of serum triglyceride” value ([2]; 10B6 vs IgG) was “dramatically improved”, the serum cholesterol levels ([2]; 10B6 vs IgG) was “less affected” and the “serum free fatty acids” value ([2]; 10B6 vs IgG) was “dramatically improved”. The hepatic lipid accumulation ([2]; H&E stains, 10B6 vs IgG control) was “significantly reduced”.
